# Experimental data: US20130115189A1
# How the values were obtained:
# IL-1 receptor [1] = assay: homogeneous time-resolved fluorescence (HTRF) receptor binding assay
# IL-1 receptor [2] = assay: cell-based or functional assay
Substance,IC50 (IL-1 receptor [1]) [nM],"Bioactivity reduction (IL6 release, HeLa cells), ratio of EC50 to MA-wt (IL-1 receptor [2]) [fold]","Bioactivity reduction (Cytotoxicity, A375 cells), ratio of LC50 to MA-wt (IL-1 receptor [2]) [fold]"
MA-D145K-His6 (from UniProt P01584 117-269) (ligand),28,–,–
MA-wt (interleukin-1β wild type sequence containing an N-terminal methionine) (from UniProt P01584 117-269) (ligand),20,–,–
MA-wt-His6 (from UniProt P01584 117-269) (ligand),23,–,–
MDI-D145K-CG (from UniProt P01584 118-269) (ligand),6770,60000,600000
MDI-D145K-His6 (from UniProt P01584 118-269) (ligand),4810,60000,600000

# The remaining substances from weak to strong by IC50 (IL-1 receptor [1]), led by results:
IC50 (IL-1 receptor [1]) [nM],"Bioactivity reduction (IL6 release, HeLa cells), ratio of EC50 to MA-wt (IL-1 receptor [2]) [fold]",Substance,"Bioactivity reduction (Cytotoxicity, A375 cells), ratio of LC50 to MA-wt (IL-1 receptor [2]) [fold]"
1340,43,MDI-wt-His6 (from UniProt P01584 118-269) (ligand),700
31,–,MA-wt-CG (from UniProt P01584 117-269) (ligand),–
